The source of these data is PMC2115384 (The Journal of Cell Biology, 1989).

Holding throughout (assay): native gel or EMSA
On the technique in general: Mobility shift assays separate free from complexed probe on a gel.

Assay [1] addresses fodrin solubilized from MDCK cells (alpha- and beta-subunits) (dog (endogenous in MDCK)).
Assay [2] addresses ankyrin solubilized from MDCK cells (dog (endogenous in MDCK)).
The target of assay [3] is purified human erythrocyte spectrin heterotetramers (human, UniProt P02549 1-2419; P11277 1-2137).
Chain of purified human erythrocyte spectrin heterotetramers (P02549 whole entry, chain 1 of 2): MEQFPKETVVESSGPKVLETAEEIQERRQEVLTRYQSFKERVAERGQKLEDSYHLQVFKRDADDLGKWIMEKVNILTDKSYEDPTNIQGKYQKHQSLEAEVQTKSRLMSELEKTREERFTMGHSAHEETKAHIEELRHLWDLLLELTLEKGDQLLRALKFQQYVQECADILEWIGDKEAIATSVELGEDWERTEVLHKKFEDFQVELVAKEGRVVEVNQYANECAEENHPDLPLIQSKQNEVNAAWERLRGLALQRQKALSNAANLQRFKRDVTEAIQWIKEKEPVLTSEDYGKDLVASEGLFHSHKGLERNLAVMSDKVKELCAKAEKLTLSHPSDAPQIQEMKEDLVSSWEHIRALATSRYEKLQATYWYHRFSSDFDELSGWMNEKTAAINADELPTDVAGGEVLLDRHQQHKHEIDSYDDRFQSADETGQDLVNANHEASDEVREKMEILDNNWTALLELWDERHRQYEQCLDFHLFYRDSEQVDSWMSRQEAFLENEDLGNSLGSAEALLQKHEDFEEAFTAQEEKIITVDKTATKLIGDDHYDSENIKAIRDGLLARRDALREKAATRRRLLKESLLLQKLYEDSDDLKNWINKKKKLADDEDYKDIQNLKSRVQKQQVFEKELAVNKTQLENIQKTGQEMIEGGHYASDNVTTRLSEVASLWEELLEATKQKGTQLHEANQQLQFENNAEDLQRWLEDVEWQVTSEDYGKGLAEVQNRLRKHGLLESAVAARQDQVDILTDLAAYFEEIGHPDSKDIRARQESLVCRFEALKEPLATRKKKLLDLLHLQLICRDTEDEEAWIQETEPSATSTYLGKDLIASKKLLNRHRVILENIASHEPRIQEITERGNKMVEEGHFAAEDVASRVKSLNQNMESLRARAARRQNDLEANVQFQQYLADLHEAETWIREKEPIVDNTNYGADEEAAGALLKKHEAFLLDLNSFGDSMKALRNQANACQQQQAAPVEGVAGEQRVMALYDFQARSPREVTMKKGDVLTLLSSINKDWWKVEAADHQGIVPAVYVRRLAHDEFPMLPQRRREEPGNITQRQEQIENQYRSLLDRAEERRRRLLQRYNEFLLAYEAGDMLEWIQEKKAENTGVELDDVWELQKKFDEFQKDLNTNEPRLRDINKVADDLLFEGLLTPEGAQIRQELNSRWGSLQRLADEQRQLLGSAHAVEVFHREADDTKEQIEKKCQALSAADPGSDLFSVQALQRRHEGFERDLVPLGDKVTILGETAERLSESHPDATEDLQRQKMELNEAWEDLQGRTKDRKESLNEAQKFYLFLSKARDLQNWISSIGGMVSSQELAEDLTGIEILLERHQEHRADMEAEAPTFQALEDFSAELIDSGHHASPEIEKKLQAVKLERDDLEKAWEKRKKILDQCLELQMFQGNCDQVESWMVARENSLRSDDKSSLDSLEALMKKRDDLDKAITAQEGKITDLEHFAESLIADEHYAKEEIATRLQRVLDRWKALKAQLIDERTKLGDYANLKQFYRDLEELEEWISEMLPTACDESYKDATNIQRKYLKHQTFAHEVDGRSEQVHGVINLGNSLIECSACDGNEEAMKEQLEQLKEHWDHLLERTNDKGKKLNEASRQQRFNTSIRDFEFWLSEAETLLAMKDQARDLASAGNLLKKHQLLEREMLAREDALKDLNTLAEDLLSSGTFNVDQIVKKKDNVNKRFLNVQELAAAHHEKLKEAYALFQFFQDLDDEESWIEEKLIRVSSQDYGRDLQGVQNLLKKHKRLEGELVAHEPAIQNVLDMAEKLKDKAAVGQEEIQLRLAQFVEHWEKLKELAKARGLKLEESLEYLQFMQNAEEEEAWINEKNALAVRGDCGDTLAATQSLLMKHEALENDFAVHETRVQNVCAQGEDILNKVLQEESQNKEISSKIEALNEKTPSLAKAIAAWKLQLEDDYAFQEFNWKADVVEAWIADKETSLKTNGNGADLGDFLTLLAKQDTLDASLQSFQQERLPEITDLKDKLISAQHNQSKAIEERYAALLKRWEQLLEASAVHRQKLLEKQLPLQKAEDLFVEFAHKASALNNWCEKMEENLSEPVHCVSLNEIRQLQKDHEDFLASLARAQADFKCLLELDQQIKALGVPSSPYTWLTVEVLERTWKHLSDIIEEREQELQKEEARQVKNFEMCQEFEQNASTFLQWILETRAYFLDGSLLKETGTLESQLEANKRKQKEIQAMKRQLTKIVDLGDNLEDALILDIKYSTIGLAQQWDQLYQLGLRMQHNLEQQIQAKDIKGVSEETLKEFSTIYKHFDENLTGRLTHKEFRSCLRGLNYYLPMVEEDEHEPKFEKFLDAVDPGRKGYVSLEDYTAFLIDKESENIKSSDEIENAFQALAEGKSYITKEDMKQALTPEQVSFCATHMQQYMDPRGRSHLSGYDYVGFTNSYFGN
Chain of purified human erythrocyte spectrin heterotetramers (P11277 whole entry, chain 2 of 2): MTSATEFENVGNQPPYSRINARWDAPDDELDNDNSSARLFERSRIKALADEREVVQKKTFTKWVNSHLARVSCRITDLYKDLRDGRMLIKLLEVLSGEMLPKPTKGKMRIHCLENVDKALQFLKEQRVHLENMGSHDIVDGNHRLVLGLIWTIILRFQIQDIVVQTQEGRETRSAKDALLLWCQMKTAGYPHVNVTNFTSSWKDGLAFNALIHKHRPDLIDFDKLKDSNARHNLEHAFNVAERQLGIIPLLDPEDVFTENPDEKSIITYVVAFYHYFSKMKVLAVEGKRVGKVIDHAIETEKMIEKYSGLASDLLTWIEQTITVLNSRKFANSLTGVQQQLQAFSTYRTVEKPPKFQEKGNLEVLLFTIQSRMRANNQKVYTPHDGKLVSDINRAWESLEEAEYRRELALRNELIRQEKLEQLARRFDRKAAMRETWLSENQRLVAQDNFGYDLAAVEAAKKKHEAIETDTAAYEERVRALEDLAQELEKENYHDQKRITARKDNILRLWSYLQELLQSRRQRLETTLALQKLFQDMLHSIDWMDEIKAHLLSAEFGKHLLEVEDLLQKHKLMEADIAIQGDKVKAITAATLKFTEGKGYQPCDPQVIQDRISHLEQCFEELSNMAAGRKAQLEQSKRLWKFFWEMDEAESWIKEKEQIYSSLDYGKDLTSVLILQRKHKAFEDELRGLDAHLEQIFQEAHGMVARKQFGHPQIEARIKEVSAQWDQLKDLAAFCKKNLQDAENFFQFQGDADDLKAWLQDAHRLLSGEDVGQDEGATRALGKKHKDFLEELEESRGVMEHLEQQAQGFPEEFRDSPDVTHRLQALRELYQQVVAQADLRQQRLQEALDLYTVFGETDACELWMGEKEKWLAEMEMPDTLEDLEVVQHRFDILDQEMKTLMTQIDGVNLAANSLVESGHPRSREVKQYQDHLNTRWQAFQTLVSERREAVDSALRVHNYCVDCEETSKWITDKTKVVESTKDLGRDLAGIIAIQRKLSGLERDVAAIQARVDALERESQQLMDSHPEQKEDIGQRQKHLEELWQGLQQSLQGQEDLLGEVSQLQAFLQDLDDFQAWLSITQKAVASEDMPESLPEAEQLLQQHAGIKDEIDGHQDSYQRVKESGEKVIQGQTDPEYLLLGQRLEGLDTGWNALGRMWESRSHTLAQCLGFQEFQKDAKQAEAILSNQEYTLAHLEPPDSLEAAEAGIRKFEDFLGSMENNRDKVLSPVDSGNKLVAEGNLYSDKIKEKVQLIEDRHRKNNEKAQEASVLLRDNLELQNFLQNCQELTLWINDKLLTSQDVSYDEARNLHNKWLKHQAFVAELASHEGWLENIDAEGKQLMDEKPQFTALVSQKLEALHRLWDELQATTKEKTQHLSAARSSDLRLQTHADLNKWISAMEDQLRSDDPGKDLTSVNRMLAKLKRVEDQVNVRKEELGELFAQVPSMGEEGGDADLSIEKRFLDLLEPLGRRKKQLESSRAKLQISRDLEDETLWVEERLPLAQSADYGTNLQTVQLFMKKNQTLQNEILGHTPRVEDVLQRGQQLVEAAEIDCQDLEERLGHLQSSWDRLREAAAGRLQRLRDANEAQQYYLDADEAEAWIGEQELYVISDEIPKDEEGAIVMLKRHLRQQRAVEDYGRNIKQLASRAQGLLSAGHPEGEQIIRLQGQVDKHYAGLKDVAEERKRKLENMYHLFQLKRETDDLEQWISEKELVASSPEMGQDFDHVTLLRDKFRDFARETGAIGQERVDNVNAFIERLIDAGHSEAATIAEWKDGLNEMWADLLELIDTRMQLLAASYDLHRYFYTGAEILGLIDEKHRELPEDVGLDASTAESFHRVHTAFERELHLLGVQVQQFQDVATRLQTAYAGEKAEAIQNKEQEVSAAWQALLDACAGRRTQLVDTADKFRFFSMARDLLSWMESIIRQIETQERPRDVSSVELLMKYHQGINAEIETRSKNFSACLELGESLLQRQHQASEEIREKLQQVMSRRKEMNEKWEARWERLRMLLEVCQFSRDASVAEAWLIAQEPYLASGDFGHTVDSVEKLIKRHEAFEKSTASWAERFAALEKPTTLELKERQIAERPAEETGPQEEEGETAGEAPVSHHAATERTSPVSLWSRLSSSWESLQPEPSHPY

Turning to “Na+,K+-ATPase solubilized from MDCK cells (alpha- and beta-subunits) (from UniProt P50997 1-1021; P06583 1-303) (complex)”, the percent of solubilized Na+,K+-ATPase comigrating with ankyrin and fodrin in assay [1] and in assay [2] was > 80% in each case.

B1: purified human erythrocyte ankyrin (natural protein, UniProt P16157 1-1881, looked up)
chain: MPYSVGFREADAATSFLRAARSGNLDKALDHLRNGVDINTCNQNGLNGLHLASKEGHVKMVVELLHKEIILETTTKKGNTALHIAALAGQDEVVRELVNYGANVNAQSQKGFTPLYMAAQENHLEVVKFLLENGANQNVATEDGFTPLAVALQQGHENVVAHLINYGTKGKVRLPALHIAARNDDTRTAAVLLQNDPNPDVLSKTGFTPLHIAAHYENLNVAQLLLNRGASVNFTPQNGITPLHIASRRGNVIMVRLLLDRGAQIETKTKDELTPLHCAARNGHVRISEILLDHGAPIQAKTKNGLSPIHMAAQGDHLDCVRLLLQYDAEIDDITLDHLTPLHVAAHCGHHRVAKVLLDKGAKPNSRALNGFTPLHIACKKNHVRVMELLLKTGASIDAVTESGLTPLHVASFMGHLPIVKNLLQRGASPNVSNVKVETPLHMAARAGHTEVAKYLLQNKAKVNAKAKDDQTPLHCAARIGHTNMVKLLLENNANPNLATTAGHTPLHIAAREGHVETVLALLEKEASQACMTKKGFTPLHVAAKYGKVRVAELLLERDAHPNAAGKNGLTPLHVAVHHNNLDIVKLLLPRGGSPHSPAWNGYTPLHIAAKQNQVEVARSLLQYGGSANAESVQGVTPLHLAAQEGHAEMVALLLSKQANGNLGNKSGLTPLHLVAQEGHVPVADVLIKHGVMVDATTRMGYTPLHVASHYGNIKLVKFLLQHQADVNAKTKLGYSPLHQAAQQGHTDIVTLLLKNGASPNEVSSDGTTPLAIAKRLGYISVTDVLKVVTDETSFVLVSDKHRMSFPETVDEILDVSEDEGEELISFKAERRDSRDVDEEKELLDFVPKLDQVVESPAIPRIPCAMPETVVIRSEEQEQASKEYDEDSLIPSSPATETSDNISPVASPVHTGFLVSFMVDARGGSMRGSRHNGLRVVIPPRTCAAPTRITCRLVKPQKLSTPPPLAEEEGLASRIIALGPTGAQFLSPVIVEIPHFASHGRGDRELVVLRSENGSVWKEHRSRYGESYLDQILNGMDEELGSLEELEKKRVCRIITTDFPLYFVIMSRLCQDYDTIGPEGGSLKSKLVPLVQATFPENAVTKRVKLALQAQPVPDELVTKLLGNQATFSPIVTVEPRRRKFHRPIGLRIPLPPSWTDNPRDSGEGDTTSLRLLCSVIGGTDQAQWEDITGTTKLVYANECANFTTNVSARFWLSDCPRTAEAVNFATLLYKELTAVPYMAKFVIFAKMNDPREGRLRCYCMTDDKVDKTLEQHENFVEVARSRDIEVLEGMSLFAELSGNLVPVKKAAQQRSFHFQSFRENRLAMPVKVRDSSREPGGSLSFLRKAMKYEDTQHILCHLNITMPPCAKGSGAEDRRRTPTPLALRYSILSESTPGSLSGTEQAEMKMAVISEHLGLSWAELARELQFSVEDINRIRVENPNSLLEQSVALLNLWVIREGQNANMENLYTALQSIDRGEIVNMLEGSGRQSRNLKPDRRHTDRDYSLSPSQMNGYSSLQDELLSPASLGCALSSPLRADQYWNEVAVLDAIPLAATEHDTMLEMSDMQVWSAGLTPSLVTAEDSSLECSKAEDSDATGHEWKLEGALSEEPRGPELGSLELVEDDTVDSDATNGLIDLLEQEEGQRSEEKLPGSKRQDDATGAGQDSENEVSLVSGHQRGQARITHSPTVSQVTERSQDRLQDWDADGSIVSYLQDAAQGSWQEEVTQGPHSFQGTSTMTEGLEPGGSQEYEKVLVSVSEHTWTEQPEAESSQADRDRRQQGQEEQVQEAKNTFTQVVQGNEFQNIPGEQVTEEQFTDEQGNIVTKKIIRKVVRQIDLSSADAAQEHEEVTVEGPLEDPSELEVDIDYFMKHSKDHTSTPNP
As to B1, in assay [3], the binding result is on record as “binds”.
